± gives the half width of the 95% confidence interval.
Experiment: folding stability dG unfold (combined trypsin and chymotrypsin); higher = more stable
Outline: (§1)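 Only designs with AlphaFold2 dimer inter-PAE above 15 were retained; each was a mini-protein under 80 residues with no cysteine, in a PA-tagged cDNA display construct. After digestion with trypsin and chymotrypsin and sequencing, K50 was inferred by Bayesian fitting of counts, and unfolding free energy was derived per protease or combined against a sequence-predicted unfolded-state K50 and a shared folded-state K50.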

Sequence	folding stability dG unfold [kcal/mol]
NPIERLKEAIKNAPPGETADIPFPDGMYININIEPEREKEDGKPRRRRKIKIEIYPPDGKPLGSITLEVPYS [r1_386_TrROS]	1.36 ± 0.15
SAGGPGTREVEITIPADELREEHPNLTDEELVEEVMELARGIAQEQGYPIKKVDITHDKDGWVTIKLSAGGS [r8_368_TrROS]	0.322 ± 0.16
SAGGMPLGITITETVTPTPDGSVVVTLTVSLPPDEPLTITFPISGETVSFPPDETITLKVTVPPGLSSAGGS [r16_56_JUSTAS]	1.4 ± 0.093
SAEEVTVKLELEIKIKVSEEEAKALAEELARALKEAGEVKITVEPVEKDEDGYYRIRVTIEVKIKKEDLSAG [r14_413_TrROS_Hall]	4.02 ± 0.095
SAGGSEVTLKVKVRRKVFKDGKLVAEEEVEKEVRVKLPPPPKIELSPELRKALEENDLEKIKKALESAGGSA [r2_196_TrROS_Hall]	1.62 ± 0.11
SAGGSAGGSAGDGWRKASFIIDPNGEILEPIPLPPGVKVEVEPFPGDGMYFVEITIPPDDSAGGSAGGSAGG [r11_32_TrROS]	0.378 ± 0.17
SAGGSWIEFMIMVPYPDGKPLEDLPPEEVVDIAKTFMSDFGYKIKDINVQYNPDDGYVHVPIEIKPSAGGSA [r2_237_TrROS]	1.21 ± 0.2
SAGGSEFPLRITDIHILGGYIVITFQVPPGLDKLEIKIKIELGGKPIEVTMEYTPGNGYMTMIIRLSAGGSA [r2_261_TrROS]	5.57 ± 0.31
SPLTLTFENPENGIRVELVFDPETPEVHAKVYAPNGELLSEETFEVEEKKITLRFNLEGKEFELEIELDESA [r9_385_TrMRF]	4.16 ± 0.11
SAGGSAGGTLSIEELKELFPEAEKIEAEEVELTFTLPNGKKVKAKYRLVTVYRDNKPILLLVPGSAGGSAGG [r6_138_TrMRF]	2.97 ± 0.12
SAGGSAGGSAGLKVIEADTLEEVLEAIKEAPKDEPLLLILRNPSTGVDSVLLFDGDKIVLGGSAGGSAGGSA [r18_407_TrMRF]	0.909 ± 0.06
SAGGSAGGSAGEKEITISILVKGEDGRLYAIKMKAKITFDEKTNELKIEIEEISITPLPPSAGGSAGGSAGG [r17_129_TrROS_Hall]	4.32 ± 0.23
SAGGSAGGSAGGMVVLENGDEVIVETFEFEEPVLDDVSEELREELGVVKVTVTKVTVIRRSAGGSAGGSAGG [r7_324_JUSTAS]	1.11 ± 0.13
SAGGSAGGSAPPPAKVKVITITETRVTYDPDTDELTVETVTLTLVVAPDGHIYVDGRWIPAEDLSAGGSAGG [r6_514_TrROS_Hall]	3.37 ± 0.11
SAGGSAGGSAGGSMPIPYKIDSIEYYPPYPYYTLNVTGPENKPYTIIMSPENLENATIESAGGSAGGSAGGS [r4_51_TrMRF]	1.05 ± 0.23
SNPDDQKKAKPIEIEIEIDFKPERERDPDGKERPRFEFDIEIKIPPGAPLDMITIYIRFDDWPFMITIPASA [r9_488_TrROS]	2.95 ± 0.28
SAGGSAGGSAGGKTYTAEELRKKLPPGAVIRLKNGKKYEIKEGDKIKKGDKIEIVPKKDLSAGGSAGGSAGG [r7_507_TrROS_Hall]	0.18 ± 0.13
SAGGSAGGMLTTQETSSDPATNLTTTTTTLTEKDASGNLVPLETTVTTTTSPPAPSTTAPTYAASAGGSAGG [r6_901_JUSTAS]	1.29 ± 0.089
SAGGQRIEIKIKPGYFIMIKIRNPKNGETFRHFIPFKKPQEIEIPIPPNYEIEDIYIMPPKDMPDGMISAGG [r13_119_TrROS]	2.15 ± 0.18
SAGGSAGGSAFDPGAPWIIMINIDIEVKKVEIERDPGDGKWEIKRIEITITIDIAIMPAEDMSAGGSAGGSA [r18_137_TrROS]	3.88 ± 0.38
KMKTITITVKVPKGMKVVITLANGKKIEIEVESVEDALKKIKKLLPEGAVLRVEVVKDGKVIEEKEIVIKPS [r1_276_TrROS_Hall]	2.66 ± 0.15

Experiment: folding stability dG unfold from trypsin proteolysis; higher = more stable
Outline: as §1

Sequence	folding stability dG unfold [kcal/mol]
SAGGSAGGSAMKKLEYTIPVPPGTLSPEKVKELFKKKYPEYENKEIKVEFSPDGTVKITVIESAGGSAGGSA [r18_65_JUSTAS]	2.38 ± 0.051
SAGMKIKVLLVVKADPEELEKLEEILEKIKEESDIKKIEPLAYFPNTGIAVVLVEADPEAFEKILEAAGSAG [r5_193_TrMRF]	1.78 ± 0.032
SAGGMTTTTLTLEEFLEKYPEEVVKERTEKPLGPGANLTIVTLTAPGTTITVTSNPAQPDIWTVTTVTSAGG [r13_942_JUSTAS]	0.75 ± 0.018
SATITVHNPWNGQPIEIRIDPGMTPEEIKKKIEKVPGIPPGTRDAVEKAIEYFEAYRQNPEQRKKLKKESAG [r14_732_TrROS]	0.241 ± 0.093
SAGGSAGGSAGGKTIVIEVKEEDIEEIIEAAKKAGADEVIIYNKKTNKKYKIKDGKIEPVSAGGSAGGSAGG [r7_564_TrROS_Hall]	1.34 ± 0.032
SATPTLTLEFEVEVEDPNAPGVPAPAKFTAEVAVTPPPVLYVGGEPWAGALLEQGLVTVGPDGLIAIPASAG [r14_582_TrMRF]	0.442 ± 0.072
SAGGSAMKPGQKLLVKNKKTNKIYEITFDKDTGKVYIHNKKTGKTYEFDSLEDALKKMGFEPVKVESAGGSA [r15_500_TrROS_Hall]	1.43 ± 0.078
SAGGSAGGSEPVVLTLPTPRGGRITITYDPSSNTATVTLPDGTVVTLSVTSVAEAKAAALAALSAGGSAGGS [r12_866_JUSTAS]	3.18 ± 0.04
SAGGSAGGSAREPPEAELVDERERTRPDGRPYTIAILRNPRDPREYLRIPGLGEWYPLDKLSAGGSAGGSAG [r3_181_TrMRF]	-0.574 ± 0.28
SAGGSAGGSAEITFNFPNPNGRPYPISIEIEKPKRNPDGKYRYDYKIKVSPGMPKEAAKDLFSAGGSAGGSA [r18_272_TrROS]	-0.849 ± 0.39
SAGGKKIIIVIGSPEEVERLKELFPDEEVITLPREALENPEVLKELIKELEEKGIEVEIIIPPGVKPSAGGS [r8_376_TrROS_Hall]	3.82 ± 0.37
SAGGSAGGSAGMVVETSKNPPTSDTVVTTLVPSPNSTTVTTTIVSPDPNTIKETTTTPTPSAGGSAGGSAGG [r11_100_JUSTAS]	2.41 ± 0.064
SAGGSAGGSAYTINIWVPPGMPKEEAADYIADWLHERHGIPDIKVSVEQDPDGMTKVTITVKSAGGSAGGSA [r18_1_TrROS]	2.32 ± 0.14
SAGGSGTMKVEVSKDGGKLTVKSEFPSGGYGVSDDSGKLATLEYDPEKGTTTVTFPDGTVRTLTYPGSAGGS [r16_602_JUSTAS]	0.0159 ± 0.11
SAGGSAGGSAGGPIITPKIRDALKAAGKDFSEEEIRGIAEGIAAIAIEKGYPDVVITADASAGGSAGGSAGG [r7_512_TrMRF]	-0.259 ± 0.06
SAGKKLKITDPEYKYYPNEGMYWVTIPIRFPDGKPIFDIDYPMPPGQSWDQVREQAKDIARWLIEEGLISAG [r5_238_TrROS]	0.639 ± 0.059
SAGFDWRTVKFPISPELRDKLKEDGFEIVGTSPNYITITVPVVPPPSPEELEEAEKEGMTWEEARDKASAGG [r19_115_TrROS]	-0.0911 ± 0.091
SAGSSPSLVLKVEIPVEIKEKRKFLLPNGETKTELTTRTITHTIVVEAGTDPAKLEEALALAEEIKEKKSAG [r14_830_JUSTAS]	-0.85 ± 0.57
SAGGSAGGSAGPKIEIEKLPGPYYLLKIYLPDENGNPIEALVVATSPEEAVEKLKELLKSSAGGSAGGSAGG [r11_819_TrMRF]	3.21 ± 0.14
SAGGSAGGTITVTPLPDGRELITYPEKNALVEIVKDPATGKETVIVYEDGEPKVISLEELKKKLSAGGSAGG [r6_534_JUSTAS]	0.359 ± 0.059
SAGGSAGGSGFKIVKVDTETGYVYVEVPKSAEKELEKLPSVEKVEEKEDSVLYRLRIPPFAALSAGGSAGGS [r12_694_TrMRF]	1.78 ± 0.069

Sequence	folding stability dG unfold [kcal/mol]
NPIERLKEAIKNAPPGETADIPFPDGMYININIEPEREKEDGKPRRRRKIKIEIYPPDGKPLGSITLEVPYS [r1_386_TrROS]	1.49 ± 0.084
SAGGPGTREVEITIPADELREEHPNLTDEELVEEVMELARGIAQEQGYPIKKVDITHDKDGWVTIKLSAGGS [r8_368_TrROS]	0.383 ± 0.091
SAGGMPLGITITETVTPTPDGSVVVTLTVSLPPDEPLTITFPISGETVSFPPDETITLKVTVPPGLSSAGGS [r16_56_JUSTAS]	1.7 ± 0.09
SAEEVTVKLELEIKIKVSEEEAKALAEELARALKEAGEVKITVEPVEKDEDGYYRIRVTIEVKIKKEDLSAG [r14_413_TrROS_Hall]	3.57 ± 0.12
SAGGSEVTLKVKVRRKVFKDGKLVAEEEVEKEVRVKLPPPPKIELSPELRKALEENDLEKIKKALESAGGSA [r2_196_TrROS_Hall]	1.43 ± 0.066
SAGGSAGGSAGDGWRKASFIIDPNGEILEPIPLPPGVKVEVEPFPGDGMYFVEITIPPDDSAGGSAGGSAGG [r11_32_TrROS]	-0.497 ± 0.22
SAGGSWIEFMIMVPYPDGKPLEDLPPEEVVDIAKTFMSDFGYKIKDINVQYNPDDGYVHVPIEIKPSAGGSA [r2_237_TrROS]	1.26 ± 0.074
SAGGSEFPLRITDIHILGGYIVITFQVPPGLDKLEIKIKIELGGKPIEVTMEYTPGNGYMTMIIRLSAGGSA [r2_261_TrROS]	4.46 ± 0.21
SPLTLTFENPENGIRVELVFDPETPEVHAKVYAPNGELLSEETFEVEEKKITLRFNLEGKEFELEIELDESA [r9_385_TrMRF]	3.86 ± 0.12
SAGGSAGGTLSIEELKELFPEAEKIEAEEVELTFTLPNGKKVKAKYRLVTVYRDNKPILLLVPGSAGGSAGG [r6_138_TrMRF]	2.82 ± 0.17
SAGGSAGGSAGLKVIEADTLEEVLEAIKEAPKDEPLLLILRNPSTGVDSVLLFDGDKIVLGGSAGGSAGGSA [r18_407_TrMRF]	1.09 ± 0.029
SAGGSAGGSAGEKEITISILVKGEDGRLYAIKMKAKITFDEKTNELKIEIEEISITPLPPSAGGSAGGSAGG [r17_129_TrROS_Hall]	3.98 ± 0.21
SAGGSAGGSAGGMVVLENGDEVIVETFEFEEPVLDDVSEELREELGVVKVTVTKVTVIRRSAGGSAGGSAGG [r7_324_JUSTAS]	1.08 ± 0.069
SAGGSAGGSAPPPAKVKVITITETRVTYDPDTDELTVETVTLTLVVAPDGHIYVDGRWIPAEDLSAGGSAGG [r6_514_TrROS_Hall]	2.89 ± 0.064
SAGGSAGGSAGGSMPIPYKIDSIEYYPPYPYYTLNVTGPENKPYTIIMSPENLENATIESAGGSAGGSAGGS [r4_51_TrMRF]	1.43 ± 0.12
SNPDDQKKAKPIEIEIEIDFKPERERDPDGKERPRFEFDIEIKIPPGAPLDMITIYIRFDDWPFMITIPASA [r9_488_TrROS]	1.8 ± 0.075
SAGGSAGGSAGGKTYTAEELRKKLPPGAVIRLKNGKKYEIKEGDKIKKGDKIEIVPKKDLSAGGSAGGSAGG [r7_507_TrROS_Hall]	-0.344 ± 0.32
SAGGSAGGMLTTQETSSDPATNLTTTTTTLTEKDASGNLVPLETTVTTTTSPPAPSTTAPTYAASAGGSAGG [r6_901_JUSTAS]	1.89 ± 0.061
SAGGQRIEIKIKPGYFIMIKIRNPKNGETFRHFIPFKKPQEIEIPIPPNYEIEDIYIMPPKDMPDGMISAGG [r13_119_TrROS]	2.11 ± 0.058
SAGGSAGGSAFDPGAPWIIMINIDIEVKKVEIERDPGDGKWEIKRIEITITIDIAIMPAEDMSAGGSAGGSA [r18_137_TrROS]	3.42 ± 0.39
KMKTITITVKVPKGMKVVITLANGKKIEIEVESVEDALKKIKKLLPEGAVLRVEVVKDGKVIEEKEIVIKPS [r1_276_TrROS_Hall]	2.18 ± 0.071

— the supplement of paper PMC12764529
